Test results from US20180244725.

Tested on: T1, R5 peptide
T1 sequence: SSKKSGSYSGSKGSKRRIL

In the case of THAOC_24272, the “methylation of R5 (LC-MS, LC-MS/MS)” value is reported as “the methylation occurs on all four lysine with no discernable preference or pattern”.

With JMJD6 (Nannochloropsos gaditana) the “enzymatic modification of R5 (Hydroxylation)” value was “resulted in no modifications”.

Tyrosinase from mushrooms (Sigma T3824) was tested, and the “oxidation and polymerization of R5 (absorbance at 350 nm, SDS-PAGE)” value was “A time course was generated showing the production of oxidized R5 (FIGS. 6B-6C) and the subsequent spontaneous formation of R5 polymers”.

For THAOC_37500, the “methylation of R5 (LC-MS time course)” value was “A time course showing the incorporation of zero to 16 methyl groups into R5”.

With Protein Kinase A (PKA) (NEB P6000S) the “phosphorylation sites on R5 (LC-MS/MS)” value was “primary phosphorylation at Ser11, with very low levels of phosphorylation at Ser4, Ser7, and Ser1.6”.

With LIPT1 the “enzymatic modification of R5 (Lipidation)” value was “resulted in no modifications”.

For JMJD6 (Auxenochlorella protothecoides), the “enzymatic modification of R5 (Hydroxylation)” value was “resulted in no modifications”.

For THAOC_27572, the “enzymatic modification of R5 (Hydroxylation)” value was “resulted in no modifications”.

For THAOC_04424, the “enzymatic modification of R5 (Hydroxylation)” value was “resulted in no modifications”.
